Results from article PMC8669613 (Cell reports, 2021).

B1: GFP-tagged, full-length OCRL (natural protein)
chain: not shown
B2: His-tagged ASH/RhoGAP domain of OCRL (536aa-901aa) (domain or fragment)
chain: not shown
B3: His-tagged ASH domain of OCRL (536aa-678aa) (domain or fragment)
chain: not shown

Columns and labels:
[1] = target: T1, GST-SdhA-CBM2 (1029-1260aa) (Legionella pneumophila, UniProt Q6RCQ3 1029-1260); assay: pull-down
[2] = target: T1, GST-SdhA-CBM2 (1029-1260aa); assay: ELISA

Binder | fold pull-down above the GST control [1] [fold] | binding result [2]
B1 | ~47 | –
B2 | – | binds
B3 | – | binds
